The assay concerns the target Rabbit skeletal muscle actin (rabbit, UniProt P68135 1-377). As to the kind of experiment: pull-down; purified His–KAT14 or His–GST (from a lysate) held on Ni-NTA agarose beads, washed with up to 500 mM NaCl, then incubated with a 4-fold amount of rabbit skeletal muscle actin in G-buffer (5 mM Tris-HCl pH 7.5, 0.2 mM ATP, 0.2 mM CaCl2, 0.5 mM DTT) for 3 h at +4°C; western blot. The conditions noted are these: both partners purified. For orientation: Immunoblotting shows a protein as a band on a membrane.

B1: Recombinant human His-KAT14 (enzyme)
chain: MDSSIHLSSLISRHDDEATRTSTSEGLEEGEVEGETLLIVESEDQASVDLSHDQSGDSLNSDEGDVSWMEEQLSYFCDKCQKWIPASQLREQLSYLKGDNFFRFTCSDCSADGKEQYERLKLTWQQVVMLAMYNLSLEGSGRQGYFRWKEDICAFIEKHWTFLLGNRKKTSTWWSTVAGCLSVGSPMYFRSGAQEFGEPGWWKLVHNKPPTMKPEGEKLSASTLKIKAASKPTLDPIITVEGLRKRASRNPVESAMELKEKRSRTQEAKDIRRAQKEAAGFLDRSTSSTPVKFISRGRRPDVILEKGEVIDFSSLSSSDRTPLTSPSPSPSLDFSAPGTPASHSATPSLLSEADLIPDVMPPQALFHDDDEMEGDGVIDPGMEYVPPPAGSVASGPVVGVRKKVRGPEQIKQEVESEEEKPDRMDIDSEDTDSNTSLQTRAREKRKPQLEKDTKPKEPRYTPVSIYEEKLLLKRLEACPGAVAMTPEARRLKRKLIVRQAKRDRGLPLFDLDQVVNAALLLVDGIYGAKEGGISRLPAGQATYRTTCQDFRILDRYQTSLPSRKGFRHQTTKFLYRLVGSEDMAVDQSIVSPYTSRILKPYIRRDYETKPPKLQLLSQIRSHLHRSDPHWTPEPDAPLDYCYVRPNHIPTINSMCQEFFWPGIDLSECLQYPDFSVVVLYKKVIIAFGFMVPDVKYNEAYISFLFVHPEWRRAGIATFMIYHLIQTCMGKDVTLHVSASNPAMLLYQKFGFKTEEYVLDFYDKYYPLESTECKHAFFLRLRR
notes: KAT14, human; also called His-tagged KAT14; source: Sf9 (MultiBac baculovirus), purified (Ni-NTA, Superdex 200)
For B1, the binding result was “binds”.

The record behind these values is publication PMC6503952, “Nuclear actin interactome analysis links actin to KAT14 histone acetyl transferase and mRNA splicing” (Journal of Cell Science, 2019).
